Target: 434cI-SH2 (SH2 domain of ABL1 kinase fused to 434 cI repressor) (434 phage) (UniProt P16117)
Assay: cell-based or functional assay

Question: For “RpoZ-HA4 (monobody HA4 fused to RpoZ) (from UniProt P0A800 1-91) (designed binder)”, which transcriptional activation, bacterial 2-hybrid, sensitized promoter PlacZ-opt is on record?
Answer: Its transcriptional activation, bacterial 2-hybrid, sensitized promoter PlacZ-opt is 200 fold.

Question: What about the transcriptional activation, bacterial 2-hybrid, wild type PlacZ promoter of the same substance?
Answer: The transcriptional activation, bacterial 2-hybrid, wild type PlacZ promoter was 17 fold.

From patent US20230220016A1
